From US20050118674A1, “Engineering of Controlled Deamidation Rates in Peptides, Proteins, and Similar Structures” (priority 2003, published 2005)

Test: First-order nonenzymatic deamidation of pentapeptides in Tris buffer
Assay type: physicochemical
Settings: pH 7.4, 37.0° C., 0.15 M Tris HCl; Asn pentapeptides
Method in brief: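 Pentapeptides containing Asn or Gln in varied flanking sequences incubated at 37° C., pH 7.4, 0.15 M Tris buffer; first-order deamidation rates measured. Some Asn values estimated from remaining data; many Gln values derived from surface fitting rather than measured.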

Substance	First-Order Deamidation Halftimes of GlyXxxAsnYyyGly [days]
GlySerAsnAlaGly (GSNAG; printed: GlySerAsnAlaGly)	24.1
GlySerAsnAmCysGly	41.3
GlySerAsnArgGly (GSNRG; printed: GlySerAsnArgGly)	59.7
GlySerAsnAspGly (GSNDG; printed: GlySerAsnAspGly)	30.3
GlySerAsnCysGly (GSNCG; printed: GlySerAsnCysGly)	60.2
GlySerAsnGluGly (GSNEG; printed: GlySerAsnGluGly)	59.7
GlySerAsnGlyGly (GSNGG; printed: GlySerAsnGlyGly)	0.96
GlySerAsnHisGly (GSNHG; printed: GlySerAsnHisGly)	9.0
GlySerAsnIleGly (GSNIG; printed: GlySerAsnIleGly)	285
GlySerAsnLeuGly (GSNLG; printed: GlySerAsnLeuGly)	110
GlySerAsnLysGly (GSNKG; printed: GlySerAsnLysGly)	55.5
GlySerAsnMetGly (GSNMG; printed: GlySerAsnMetGly)	54.9
GlySerAsnPheGly (GSNFG; printed: GlySerAsnPheGly)	52.2
GlySerAsnProGly (GSNPG; printed: GlySerAsnProGly)	7060
GlySerAsnSerGly (GSNSG; printed: GlySerAsnSerGly)	15.1
GlySerAsnThrGly (GSNTG; printed: GlySerAsnThrGly)	45.7
GlySerAsnTrpGly (GSNWG; printed: GlySerAsnTrpGly)	76.8
GlySerAsnTyrGly (GSNYG; printed: GlySerAsnTyrGly)	64.7
GlySerAsnValGly (GSNVG; printed: GlySerAsnValGly)	233
GlyThrAsnAlaGly (GTNAG; printed: GlyThrAsnAlaGly)	24.6
GlyThrAsnAmCysGly	34.4
GlyThrAsnArgGly (GTNRG; printed: GlyThrAsnArgGly)	51.2
GlyThrAsnAspGly (GTNDG; printed: GlyThrAsnAspGly)	27.9

Substance	First-Order Deamidation Halftimes of GlyXxxAsnYyyGly [days]
GlyThrAsnCysGly (GTNCG; printed: GlyThrAsnCysGly)	55.5
GlyThrAsnGluGly (GTNEG; printed: GlyThrAsnGluGly)	60.8
GlyThrAsnGlyGly (GTNGG; printed: GlyThrAsnGlyGly)	1.04
GlyThrAsnHisGly (GTNHG; printed: GlyThrAsnHisGly)	9.6
GlyThrAsnIleGly (GTNIG; printed: GlyThrAsnIleGly)	279
GlyThrAsnLeuGly (GTNLG; printed: GlyThrAsnLeuGly)	110
GlyThrAsnLysGly (GTNKG; printed: GlyThrAsnLysGly)	57.6
GlyThrAsnMetGly (GTNMG; printed: GlyThrAsnMetGly)	47.6
GlyThrAsnPheGly (GTNFG; printed: GlyThrAsnPheGly)	76.4
GlyThrAsnProGly (GTNPG; printed: GlyThrAsnProGly)	6290
GlyThrAsnSerGly (GTNSG; printed: GlyThrAsnSerGly)	17.1
GlyThrAsnThrGly (GTNTG; printed: GlyThrAsnThrGly)	50.0
GlyThrAsnTrpGly (GTNWG; printed: GlyThrAsnTrpGly)	72.5
GlyThrAsnTyrGly (GTNYG; printed: GlyThrAsnTyrGly)	80.6
GlyThrAsnValGly (GTNVG; printed: GlyThrAsnValGly)	237
GlyTrpAsnAlaGly (GWNAG; printed: GlyTrpAsnAlaGly)	30.7
GlyTrpAsnAmCysGly	42.9
GlyTrpAsnArgGly (GWNRG; printed: GlyTrpAsnArgGly)	73.9
GlyTrpAsnAspGly (GWNDG; printed: GlyTrpAsnAspGly)	43.6
GlyTrpAsnCysGly (GWNCG; printed: GlyTrpAsnCysGly)	83.1
GlyTrpAsnGluGly (GWNEG; printed: GlyTrpAsnGluGly)	75.7
GlyTrpAsnGlyGly (GWNGG; printed: GlyTrpAsnGlyGly)	1.75

Same assay, conditions: pH 7.4, 37.0 ° C., 0.15 M Tris HCl; Gln pentapeptides; 52 values measured, rest derived from surface fitting

Substance	First-Order Deamidation Halftimes of GlyXxxGlnYyyGly [days]
GlySerGlnAlaGly (GSQAG; printed: GlySerGlnAlaGly)	6400
GlySerGlnArgGly (GSQRG; printed: GlySerGlnArgGly)	7200
GlySerGlnAspGly (GSQDG; printed: GlySerGlnAspGly)	8200
GlySerGlnCysGly (GSQCG; printed: GlySerGlnCysGly)	2100
GlySerGlnGluGly (GSQEG; printed: GlySerGlnGluGly)	8100
GlySerGlnGlyGly (GSQGG; printed: GlySerGlnGlyGly)	700
GlySerGlnHisGly (GSQHG; printed: GlySerGlnHisGly)	6500
GlySerGlnIleGly (GSQIG; printed: GlySerGlnIleGly)	5900
GlySerGlnLeuGly (GSQLG; printed: GlySerGlnLeuGly)	6100
GlySerGlnLysGly (GSQKG; printed: GlySerGlnLysGly)	6300
GlySerGlnMetGly (GSQMG; printed: GlySerGlnMetGly)	5100
GlySerGlnPheGly (GSQFG; printed: GlySerGlnPheGly)	8300
GlySerGlnProGly (GSQPG; printed: GlySerGlnProGly)	10000
GlySerGlnSerGly (GSQSG; printed: GlySerGlnSerGly)	6000
GlySerGlnThrGly (GSQTG; printed: GlySerGlnThrGly)	5400
GlySerGlnTrpGly (GSQWG; printed: GlySerGlnTrpGly)	17000
GlySerGlnTyrGly (GSQYG; printed: GlySerGlnTyrGly)	13000
GlySerGlnValGly (GSQVG; printed: GlySerGlnValGly)	6800

Substance	First-Order Deamidation Halftimes of GlyXxxGlnYyyGly [days]
GlyThrGlnAlaGly (GTQAG; printed: GlyThrGlnAlaGly)	4300
GlyThrGlnArgGly (GTQRG; printed: GlyThrGlnArgGly)	5100
GlyThrGlnAspGly (GTQDG; printed: GlyThrGlnAspGly)	6300
GlyThrGlnCysGly (GTQCG; printed: GlyThrGlnCysGly)	1000
GlyThrGlnGluGly (GTQEG; printed: GlyThrGlnGluGly)	5900
GlyThrGlnGlyGly (GTQGG; printed: GlyThrGlnGlyGly)	670
GlyThrGlnHisGly (GTQHG; printed: GlyThrGlnHisGly)	4500
GlyThrGlnIleGly (GTQIG; printed: GlyThrGlnIleGly)	5300
GlyThrGlnLeuGly (GTQLG; printed: GlyThrGlnLeuGly)	5200
GlyThrGlnLysGly (GTQKG; printed: GlyThrGlnLysGly)	4800
GlyThrGlnMetGly (GTQMG; printed: GlyThrGlnMetGly)	3700
GlyThrGlnPheGly (GTQFG; printed: GlyThrGlnPheGly)	6800
GlyThrGlnProGly (GTQPG; printed: GlyThrGlnProGly)	7500
GlyThrGlnSerGly (GTQSG; printed: GlyThrGlnSerGly)	4200
GlyThrGlnThrGly (GTQTG; printed: GlyThrGlnThrGly)	4000
GlyThrGlnTrpGly (GTQWG; printed: GlyThrGlnTrpGly)	9700
GlyThrGlnTyrGly (GTQYG; printed: GlyThrGlnTyrGly)	8400
GlyThrGlnValGly (GTQVG; printed: GlyThrGlnValGly)	5100
